Data taken from EP4810052A2 (Gubra A/S, dated 2026).
Read-outs that look alike come from different tables or passages of the source. One block for each binder: values may come before it. Non-standard residues stand in square brackets, D forms with d. No end group written: not given here. NMeI = CC[C@H](C)[C@H](NC)C(=O)O; Nle = CCCC[C@H](N)C(=O)O; lip = not defined here; Aib = CC(C)(N)C(=O)O

Legend:
Experiment in all cases: cell-based or functional assay
[1] = target: T1, human corticotropin-releasing hormone receptor 1 (human, UniProt P34998 24-415)
T1 sequence (looked up): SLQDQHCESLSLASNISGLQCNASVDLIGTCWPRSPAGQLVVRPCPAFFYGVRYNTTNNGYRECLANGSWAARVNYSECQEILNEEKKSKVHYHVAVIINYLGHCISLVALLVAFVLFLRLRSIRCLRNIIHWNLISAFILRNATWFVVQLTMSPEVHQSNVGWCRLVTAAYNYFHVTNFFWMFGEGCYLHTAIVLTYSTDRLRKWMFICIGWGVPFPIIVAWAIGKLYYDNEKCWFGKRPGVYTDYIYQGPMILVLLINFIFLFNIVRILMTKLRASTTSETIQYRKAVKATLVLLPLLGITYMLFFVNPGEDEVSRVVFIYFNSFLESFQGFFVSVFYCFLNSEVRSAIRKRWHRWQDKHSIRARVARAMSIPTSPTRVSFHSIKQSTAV

[2] = target: T1, human corticotropin-releasing hormone …; remark: listed apart in the source
[3] = target: T1, human corticotropin-releasing hormone …; remark: listed apart in the source

- hCRHR1 EC50 (nM); HTRF cAMP assay, CHO-K1 cells stably expressing hCRHR1 [1]: > 5000 nM
B1: SEQ ID NO: 69 (peptide)
peptide: IVLSLDVPIGLLQILLEQARARAAREQAKTNAEI[Nle]AEI-NH2
modifications: not fully specified (residue 29); also: lipid and spacer on Lys29 not given here

- hCRHR1 EC50 (nM); HTRF cAMP assay, CHO-K1 cells stably expressing hCRHR1 [2]: > 5000 nM
Binder: IVLSLDVPIGLLQILLEQARARAAREQATK(lip)NAEILAEV-NH2 (not fully specified; reading uncertain) [SEQ ID NO: 4]

- hCRHR1 EC50 (nM); HTRF cAMP assay, CHO-K1 cells stably expressing hCRHR1 [1]: > 5000 nM
B2: SEQ ID NO: 234 (peptide)
peptide: IVLSLDVPIGLLQILLSQARARAAREQAKTN[Aib]EI[Nle]AEV-NH2
modifications: not fully specified (residue 29); also: lipid and spacer on Lys29 not given here

- hCRHR1 EC50 (nM); HTRF cAMP assay, CHO-K1 cells stably expressing hCRHR1 [3]: > 5000 nM
B3: SEQ ID NO: 19 (peptide)
peptide: IVLSLDVPIGLLQILLEQARARAAREQAK[Aib]NAEILAEV-NH2
modifications: not fully specified (residue 29); also: lipid and spacer on Lys29 not given here

- hCRHR1 EC50 (nM); HTRF cAMP assay, CHO-K1 cells stably expressing hCRHR1 [2]: 110 nM
Binder: lip-IVLSLDVPIGLLQILLEQARARAAREQATTNAEILAEV-NH2 (not fully specified; reading uncertain) [SEQ ID NO: 260]

- hCRHR1 EC50 (nM); HTRF cAMP assay, CHO-K1 cells stably expressing hCRHR1 [2]: 510 nM
Binder: [NMeI]VLSLDVPIGLLQILLEQEKQEKEKQQAK(lip)TNAQILAQV-NH2 (not fully specified; reading uncertain) [SEQ ID NO: 9 (prior art peptide)]

- hCRHR1 EC50 (nM); HTRF cAMP assay, CHO-K1 cells stably expressing hCRHR1 [1]: > 5000 nM
Binder: [NMeI]VLSLDVPIGLLQILLSQARARAAREQAK(lip)[Aib]NAEI[Nle]AEV-NH2 (reading uncertain) [SEQ ID NO: 132]

- hCRHR1 EC50 (nM); HTRF cAMP assay, CHO-K1 cells stably expressing hCRHR1 [2]: 560 nM
Binder: Ac-IVLSLDVPIGLLQILLEQARARAAREQAK(lip)TNAEILAEV-NH2 (not fully specified; reading uncertain) [SEQ ID NO: 8]

- hCRHR1 EC50 (nM); HTRF cAMP assay, CHO-K1 cells stably expressing hCRHR1 [3]: > 5000 nM
Binder: IVLSLDVPIGLLQILLEQARARAAREQAK(lip)TNIEILAEV-NH2 (not fully specified; reading uncertain) [SEQ ID NO: 13]

- hCRHR1 EC50 (nM); HTRF cAMP assay, CHO-K1 cells stably expressing hCRHR1 [1]: > 5000 nM
B4: SEQ ID NO: 237 (peptide)
peptide: IVLSLDVPIGLLQILLSQARARAAREQAK[Aib]NAEI[Nle]AEV-NH2
modifications: not fully specified (residue 29); also: lipid and spacer on Lys29 not given here

- hCRHR1 EC50 (nM); HTRF cAMP assay, CHO-K1 cells stably expressing hCRHR1 [1]: > 5000 nM
Binder: IVLSLDVPIGLLQILLSQARARAAREQAK(lip)TNAEI[Nle]AEI-NH2 (not fully specified; reading uncertain) [SEQ ID NO: 89]

- hCRHR1 EC50 (nM); HTRF cAMP assay, CHO-K1 cells stably expressing hCRHR1 [1]: > 5000 nM
Binder: IVLSLDVPIGLLQILLSQARARAAREQAK(lip)TNAEI[Nle]AEV-NH2 (not fully specified; reading uncertain) [SEQ ID NO: 83]

- hCRHR1 EC50 (nM); HTRF cAMP assay, CHO-K1 cells stably expressing hCRHR1 [1]: > 5000 nM
B5: SEQ ID NO: 236 (peptide)
peptide: IVLSLDVPIGLLQILLEQARARAAREQAK[Aib]NAEI[Nle]AEI-NH2
modifications: not fully specified (residue 29); also: lipid and spacer on Lys29 not given here

- hCRHR1 EC50 (nM); HTRF cAMP assay, CHO-K1 cells stably expressing hCRHR1 [3]: > 5000 nM
Binder: [NMeI]VLSLDVPIGLLQILLEQARARAAREQAK(lip)ENAEILAEV-NH2 (reading uncertain) [SEQ ID NO: 18]

- hCRHR1 EC50 (nM); HTRF cAMP assay, CHO-K1 cells stably expressing hCRHR1 [2]: 670 nM
Binder: K(lip)IVLSLDVPIGLLQILLEQARARAAREQATTNAEILAEV-NH2 (not fully specified; reading uncertain) [SEQ ID NO: 11 (prior art peptide)]

- hCRHR1 EC50 (nM); HTRF cAMP assay, CHO-K1 cells stably expressing hCRHR1 [2]: > 5000 nM
B6: SEQ ID NO: 5 (peptide)
peptide: [NMeI]VLSLDVPIGLLQILLEQARARAAREQAKTNAEILAEV-NH2
modifications: not fully specified (residue 29); also: lipid and spacer on Lys29 not given here

- hCRHR1 EC50 (nM); HTRF cAMP assay, CHO-K1 cells stably expressing hCRHR1 [2]: 68 nM
Binder: [NMeI]VTSLDVPIGLLQILLEQEKQEKEKQQAK(lip)TNAEILAQV-NH2 (reading uncertain) [SEQ ID NO: 10 (prior art peptide)]

- hCRHR1 EC50 (nM); HTRF cAMP assay, CHO-K1 cells stably expressing hCRHR1 [2]: > 5000 nM
Binder: IVLSLDVPIGLK(lip)QILLEQARARAAREQATTNAEILAEV-NH2 (not fully specified; reading uncertain) [SEQ ID NO: 261]

- hCRHR1 EC50 (nM); HTRF cAMP assay, CHO-K1 cells stably expressing hCRHR1 [2]: > 5000 nM
Binder: IVLSLDVPIGLLQILLEQARARAAREQAK(lip)TNARILARV-NH2 (not fully specified; reading uncertain) [SEQ ID NO: 2 (lipidated version of native UCN2)]

- hCRHR1 EC50 (nM); HTRF cAMP assay, CHO-K1 cells stably expressing hCRHR1 [2]: > 5000 nM
Binder: PVLSLDVPIGLLQILLEQARARAAREQAK(lip)TNAEILAEV-NH2 (not fully specified; reading uncertain) [SEQ ID NO: 7]

- hCRHR1 EC50 (nM); HTRF cAMP assay, CHO-K1 cells stably expressing hCRHR1 [3]: > 5000 nM
Binder: IVLSLDVPIGLLQILLEQARARAAREQAK(lip)TNVEILAEV-NH2 (not fully specified; reading uncertain) [SEQ ID NO: 14]

- hCRHR1 EC50 (nM); HTRF cAMP assay, CHO-K1 cells stably expressing hCRHR1 [3]: > 5000 nM
Binder: IVLSLDVPIGLLQILLEQARARAAREQAK(lip)TN[Aib]EILAEV-NH2 (reading uncertain) [SEQ ID NO: 15]

- hCRHR1 EC50 (nM); HTRF cAMP assay, CHO-K1 cells stably expressing hCRHR1 [3]: > 5000 nM
Binder: IVLSLDVPIGLLQILLEQARARAAREQAK(lip)TNLEILAEV-NH2 (not fully specified; reading uncertain) [SEQ ID NO: 12]

- hCRHR1 EC50 (nM); HTRF cAMP assay, CHO-K1 cells stably expressing hCRHR1 [3]: > 5000 nM
B7: SEQ ID NO: 20 (peptide)
peptide: [NMeI]VLSLDVPIGLLQILLEQARARAAREQAK[Aib]NAEILAEV-NH2
modifications: not fully specified (residue 29); also: lipid and spacer on Lys29 not given here

- hCRHR1 EC50 (nM); HTRF cAMP assay, CHO-K1 cells stably expressing hCRHR1 [1]: 56 nM
B8: SEQ ID NO: 45 (peptide)
peptide: IVLSLDVPIGLLQILLEQARARAAREQAKTNAEI[Nle]AEV-NH2
modifications: not fully specified (residue 29); also: lipid and spacer on Lys29 not given here

- hCRHR1 EC50 (nM); HTRF cAMP assay, CHO-K1 cells stably expressing hCRHR1 [3]: > 5000 nM
Binder: IVLSLDVPIGLLQILLEQARARAAREQAK(lip)ENAEILAEV-NH2 (not fully specified; reading uncertain) [SEQ ID NO: 17]

- hCRHR1 EC50 (nM); HTRF cAMP assay, CHO-K1 cells stably expressing hCRHR1 [1]: > 5000 nM
B9: SEQ ID NO: 239 (peptide)
peptide: IVLSLDVPIGLLQILLSQARARAAREQAKENAEI[Nle]AEV-NH2
modifications: not fully specified (residue 29); also: lipid and spacer on Lys29 not given here

- hCRHR1 EC50 (nM); HTRF cAMP assay, CHO-K1 cells stably expressing hCRHR1 [1]: > 5000 nM
Binder: [NMeI]VLSLDVPIGLLQILLSQARARAAREQAK(lip)ENAEI[Nle]AEV-NH2 (reading uncertain) [SEQ ID NO: 101]
